B1: Importin subunit beta-5 (Saccharomyces cerevisiae), P53067 (parent)
chain: MDINELIIGAQSADKHTREVAETQLLQWCDSDASQVFKALANVALQHEASLESRQFALLSLRKLITMYWSPGFESYRSTSNVEIDVKDFIREVLLKLCLNDNENTKIKNGASYCIVQISAVDFPDQWPQLLTVIYDAISHQHSLNAMSLLNEIYDDVVSEEMFFEGGIGLATMEIVFKVLNTETSTLIAKIAALKLLKACLLQMSSHNEYDEASRKSFVSQCLATSLQILGQLLTLNFGNVDVISQLKFKSIIYENLVFIKNDFSRKHFSSELQKQFKIMAIQDLENVTHINANVETTESEPLLETVHDCSIYIVEFLTSVCTLQFSVEEMNKIITSLTILCQLSSETREIWTSDFNTFVSKETGLAASYNVRDQANEFFTSLPNPQLSLIFKVVSNDIEHSTCNYSTLESLLYLLQCILLNDDEITGENIDQSLQILIKTLENILVSQEIPELILARAILTIPRVLDKFIDALPDIKPLTSAFLAKSLNLALKSDKELIKSATLIAFTYYCYFAELDSVLGPEVCSETQEKVIRIINQVSSDAEEDTNGALMEVLSQVISYNPKEPHSRKEILQAEFHLVFTISSEDPANVQVVVQSQECLEKLLDNINMDNYKNYIELCLPSFINVLDSNNANNYRYSPLLSLVLEFITVFLKKKPNDGFLPDEINQYLFEPLAKVLAFSTEDETLQLATEAFSYLIFNTDTRAMEPRLMDIMKVLERLLSLEVSDSAAMNVGPLVVAIFTRFSKEIQPLIGRILEAVVVRLIKTQNISTEQNLLSVLCFLTCNDPKQTVDFLSSFQIDNTDALTLVMRKWIEAFEVIRGEKRIKENIVALSNLFFLNDKRLQKVVVNGNLIPYEGDLIITRSMAKKMPDRYVQVPLYTKIIKLFVSELSFQSKQPNPEQLITSDIKQEVVNANKDDDNDDWEDVDDVLDYDKLKEYIDDDVDEEADDDSDDITGLMDVKESVVQLLVRFFKEVASKDVSGFHCIYETLSDSERKVLSEALL

Variants of: B1
Conditions: with gsp1_yeast GSP1, P32835

| effect of a mutation on the interaction | Variant |
| --- | --- |
| decreasing interaction | K909R |
